The target in assay [1] is circPETH-147aa MEG/3 A, recombinant (human). As to the kind of experiment: SPR. (In general: SPR reads the build-up and loss of mass on a sensor chip optically.)
For assay [2], the target named is circPETH-147aa, recombinant wild type (human). Put plainly: SPR.

B1: recombinant wild-type ALDOA (WT) (enzyme)
chain: PYQYPALTPEQKKELSDIAHRIVAPGKGILAADESTGSIAKRLQSIGTENTEENRRFYRQLLLTADDRVNPCIGGVILFHETLYQKADDGRPFPQVIKSKGGVVGIKVDKGVVPLAGTNGETTTQGLDGLSERCAQYKKDGADFAKWRCVLKIGEHTPSALAIMENANVLARYASICQQNGIVPIVEPEILPDGDHDLKRCQYVTEKVLAAVYKALSDHHIYLEGTLLKPNMVTPGHACTQKFSHEEIAMATVTALRRTVPPAVTGITFLSGGQSEEEASINLNAINKCPLLKPWALTFSYGRALQASALKAWGGKKENLKAAQEEYVKRALANSLACQGKYTPSGQAGAAASESLFVSNHAY
For B1, the Kd in assay [1] came to 1410 nM; in assay [2], 42.4 nM.

The Kd is the constant that tells how readily two partners part at equilibrium.

For the origin of these results see PMC11696079.
